Assay: soluble on expression in E. coli; label from the status in PepcDB or PDB records

| Sequence | soluble on expression in E. coli |
| --- | --- |
| MVLKERHKKICLLPSYSRLAHYPGLLMLTTLIYRSHIRGDEPVKKIEEMVSIANRRNMRSDVTGILLFNGSHFFQLLEGPEEQVQMIYRAICQDPRHYNIVELLCDYAPARRFGKAGMELFDLRLHERDDVLQAVFDKGTSKFQLTYDDRALQFFRTFVLATEQSTYFEIPAEDSWLFIADGSDKELDSCTLSSNINDHFAFHPIVDPLSRRIIAFEAIVQKNEDSPSAIAVGQRKDEEIYTADLKSKALAFAMAHALKLGDKMISINLLPMTLVNKPDAVSFLLDEIKANALVPEQIIVEFTESEVISRFDEFAEAVKSLKAAGISVAIDHFGAGFAGLLLLSRFQPDRIKISQELITNVHKSGPRQAIIQAIMKCCTSLEIQVSAMGVATPEEWMWLESAGIEMFQGDLFSKAKLNGIPSVAWPEKK | not soluble |
| MYFIGCGYNAFPVGSEYADFPHMDDKHKDREIRKFRYIIHAEQNALTFRCQDIKPEEHSMIFVTKCPCDECVPLIKGAGIKQIYAGDVDVGKKKADISYMKFGELEGVRKFTWQLNPSEAYSLDPNEPERREKHLSIKRSH | not soluble |
| GGSEDEDSPLDALDLVWAKCRGYPSYPALIIDPKMPREGMFHHGVPIPVPPLEVLKLGEQMTQEAREHLYLVLFFDNKRTWQWLPRTKLVPLGVNQDLDKEKMLEGRKSNIRKSVQIAYHRALQHRSKVQGE | soluble |
| MSLAILIKNRIGKGYPIYTSTVLNEKLSDEGNLTFDILENENTYDLISAVSKMWTVHNVAGPDDKRVFVITIIDRQSRGEKQYVSITARQKEIDDLMTQRIYSNVTGSFTVENYFKIVFQGSGYKYKIPIKVPSSRWENAGDGDSRYEMFKNGLERYDLEYTYDPSNKTFTLEPFVEKKTSYYISSKVNANNLKLEEDASECYTYIRGYGGFEEDESFMQGSVQVEFTHPLAKVIGKREAPPKIDGRITNIETMKREIEAIIAQSLKTSLSLDFVALREVFPSAVPRIGDLVPVRDDIIDINDSVRIIEIKTTRDAHNKIIKQDVVLGDIRRRDRYTKSVNNAATLASGLGGGSEGHHHHHH | soluble |
| MGSDKIHHHHHHMKWTTPADLKAQVRKLWDRGLLLASLAGGEALFPRRLTLKSPDSRGLSERFPEVREWIAQLCSAAGFYRIEWRSVNHRVLGANEIPAAIWIDTLEEALGLIGKRRAADQFATLVELTRKKQPELVPWLAKRPLRALELSEDWPRLLEIVTWVLKHPRPAIYLRQIDLPGVHTKFIEGHRGVLAELLDLVLPGEAIDATHTGIGGFCRRYGFLDKPLRVRFRVLDRNIRLPAVESDQDITLTQASFASLDLPASKVFITENEINFLAFPDVPDAMVIFGAGYGFDNLAAAPWLHQRGIYYWGDIDTHGFAILNQLRGFFPHAVSFLMDLQTLLAHRSLWGVEKQPETGTLARLNSEESALYDQLRRNHWGERVRLEQERIGFGFLHDVLRRL | not soluble |
| MTYKYNCCDDGSGTTVGSVVRFDNVTLLIDPGWNPSKVSYEQCIKYWEKVIPEIDVIILSQPTIECLGAHSLLYYNFTSHFISRIQVYATLPVINLGRVSTIDSYASAGVIGPYDTNKLDLEDIEISFDHIVPLKYSQLVDLRSRYDGLTLLAYNAGVCPGGSIWCISTYSEKLVYAKRWNHTRDNILNAASILDATGKPLSTLMRPSAIITTLDRFGSSQPFKKRSKIFKDTLKKGLSSDGSVIIPVDMSGKFLDLFTQVHELLFESTKINAHTQVPVLILSYARGRTLTYAKSMLEWLSPSLLKTWENRNNTSPFEIGSRIKIIAPNELSKYPGSKICFVSEVGALINEVIIKVGNSEKTTLILTKPSFECASSLDKILEIVEQDERNWKTFPEDGKSFLCDNYISIDTIKEEPLSKEETEAFKVQLKEKKRDRNKKILLVKRESKKLANGNAIIDDTNGERAMRNQDILVENVNGVPPIDHIMGGDEDDDEEEENDNLLNLLKDNSEKSAAKKNTEVPVDIIIQPSAASKHKMFPFNPAKIKKDDYGTVVDFTMFLPDDSDNVNQNSRKRPLKDGAKTTSPVNEEDNKNEEEDGYNMSDPISKRSKHRASRYSGFSGTGEAENFDNLDYLKIDKTLSKRTISTVNVQLKCSVVILNLQSLVDQRSASIIWPSLKSRKIVLSAPKQIQNEEITAKLIKKNIEVVNMPLNKIVEFS | soluble |
| MGSDKIHHHHHHADMDGSQNKETENKEIKIILEAETSSQNIFAPIVFYQSFDFGKDAPCLSEVYDSIVWKSSHSPNSFKVFSHSNYARYVETTFFKWAHVYYSPGTYKTYLLGYKNNEIIYSSDTISIDITNKKDFLAFNWKDVTDSDFTTGYANNLDGYYLSTQTHIHQGVPSVMLYAKNEKYEKGGSMKSKQILYNYINSFFSLPNYTATSDESLRKEFSTIFSFQEENAIPLNIWLTPKAKIVLLRKDFKGLESEYKIYAEPGDLI | not soluble |
| MQLPPVHSVSLSEYFVSGNVIIHETAVIAPGVILEAAPDCQITIEAGVCIGLGSVISAHAGDVKIQEQTAIAPGCLVIGPVTIGATACLGSRSTVFQQDIDAQVLIPPGSLLMNRVADVQTVGASSPTTDSVTEKKSPSTANPIAPIPSPWDNEPPAKGTDSPSDQAKESIARQSRPSTAEAAEQISSNRSPGESTPTAPTVVTTAPLVSEEVQEKPPVVGQVYINQLLLTLFPERRYFSS | not soluble |
| MSLYRHIPLVALSLFSSLFLAACGNGTPPPAAARPAIVVQPQPAGEVSQAFPGEIRARHEPELAFRIGGKVIRRLVEVGERVKKDQPLAELDPQDVRLQLEAARAQVSAAEANLQTVRAEYRRYRTLLDRNLVSHSQFENIQNSYRAGEARLKQIRAEFNVADNQAGYAVLRSPQDGVIASRRVEVGQVVAAGQTVFSLAADGEREVLIGLPEHSFERFRIGQPVSVELWSQRDRRFAGHIRELSPAADPQSRTFAARVAFDDRATPAELGQSARVYVAAAEAVPLSVPLSALTAEAGQAFVWVVEPGSSTLRRQPVRTGPYAEDRVPVLEGLKAGDWVVATGVQVLREGQQVRPIDRANRTVKLAAKEEGHHHHHH | soluble |
| MSTPHINVIGAGLAGSEAAWQIAERGIAVHLYEMRPVKQTPAHHTDKFAELVCSNSLRGNSLTNAVGVLKEEMRRLNSVIIRSADRCSVPAGGALAVDRHEFAQAVTEAVREHPNVTVFTEEIQKIPDGPTVIATGPLTSKALSEQLKQLTGEEYLYFYDAAAPIIETDSINMDKVYLKSRYDKGEAAYLNCPMTEEEFDRFYEALISAETVPLKEFEKEVFFEGCMPVEVMAKRGKKTLLFGPMKPVGLEDPKTGKRPYAVVQLRRDNQSGTLYNIVGFQTHLKWGPQKEVIQLIPGLENAEIVRYGVMHRNTFINSPNLLKPTYQYKKRKDLFFAGQITGVEGYVESAAAGLVAGLNAARLVQSKELVVFPDTTMLGSMANYITTANSKNFQPMNANFGLLPPLDTRIKDKKTRYETLAGRALESIQNFVKKMLEHHHHHH | soluble |
| MGSDKIHHHHHHMREDFLSREEVDALLRGVSSGSTTSEQSTANPGFRPYNLATQERIVRGRMPTLEIINERFARLLRLGLFNFMRRSANVTAGPVRVMKFSEFVRNLAAPSNLNLVHIKPLRGTSLFVFDPTLVFLVVDNLFGGDGRFLPKTEGRDFTQTEQRIIQRLLNLVFDSYGKSWHPVYPIEFEYLRAETNTQFANVATPNEVVVATTFEVNFGSVVGEMHICMPYSILEPIRDLLSSTLQGEALEVDKRWVGRLSKQVQSAEVTLLANLTHAQVRLDQILNMKVGDVIPLDIPEFVTASVDGVPVMECKYGISNGRYALRMEKMLASGNSNE | not soluble |
| MGSDKIHHHHHHKAPLDEIADDSFWSDETLVKYYVNDLYSEISVDGLQLQENRSDNSVSAQRDKYRASWFKFNYDMVSASDPQDDDVWEDYYVKVRKCNRFFERIGTSTIEESEKSRLTGEVHFLRAMFYFEMVKRYGGVILLDKVLTMEDNWEIPRSSEKECYDFILEDLKKATEMLPASYGSREKGRATKGAAYALKSRVELYDKRYEDVIKSCAEVYKLGYELVDGTTPEKYRSIWWTTNKDNKEIIFDVQYKSPDVYNNMMVCNMVTYINDKYGDRGWGGLGPTQELIDAFEMADGTPATQYSQAPADQVFDINTCGIYEGREPRFYANIVFHGSQIFFNADKGAVTVDRYLMDTPDKGDGSLTGYNVWKWIDYDNYNYPYAGAGSPDFSTNWIILRYAEIYLNDAEARLETGDVEGARKAVNMIRQRVGLPDLTESDPEKLRELIRKERRIEFAFEEQRFYDVRRWKIGPETQTTLHGVRFVSPTEFKVTKTDIRTWNDRLYLTPVPHDEIVRSSVLKQNLGY | not soluble |
| MESVYLFSSGTLKRKANTICLETESGRKYIPVENVMDIKVFGEVDLNKRFLEFLSQKRIPIHFFNREGYYVGTFYPREYLNSGFLILKQAEHYINQEKRMLIAREIVSRSFQNMVDFLKKRKVRADSLTRYKKKAEEASNVSELMGIEGNAREEYYSMIDSLVSDERFRIEKRTRRPPKNFANTLISFGNSLLYTTVLSLIYQTHLDPRIGYLHETNFRRFSLNLDIAELFKPAVVDRLFLNLVNTRQINEKHFDEISEGLMLNDEGKSLFVKNYEQALRETVFHKKLNRYVSMRSLIKMELHKLEKHLIGEQVFGSEE | soluble |
| MILIADSGSTKTDWCVVLNGAVIKRLGTKGINPFFQSEEEIQQKLTASLLPQLPEGKFNAVYFYGAGCTPEKAPVLRRAIADSLPVIGNIKANSDMLAAAHGLCGQKAGIACILGTGSNSCFYNGKEIVSNISPLGFILGDEGSGAVLGKLLVGDILKNQLPATLKEEFLKQFDLTPPEIIDRVYRQPFPNRFLASLSPFIAQHLEEPAIRQLVMNSFIAFFRRNVMQYDYKQYPVHFIGSIAYCYKEILQDAARQTGIQIGKILQSPMEGLIQYHSQLSFHPLEHHHHHH | soluble |
| MGSDKIHHHHHHMPKVLHVADVHLGARPYGLEERRDDIFRSFEFVVETALKDRPDAVLIAGDLFDKPKLPLRDVKQAVELVRALTDAGIPVLAAHGEHDTPSVRDETLLSLMEASLDGFKAPLYRSGMRPGDFVVDLGSLKVAVVPFFKVPLEERRRLTLRFLREFDQISRTSSGTLVLLAHMSLDAEMQFDAVASPSDLPSGAKYAALGHLHAPRIRLDAPTPYAYPGVLDPLKVEEINTPGSPLYVDLSGDAPIIEKVKVPRRPQYRIEVDIGDGGSIYNAVNRGLRRVLANVRASREDWLKPLIHVIIKSDKPISKARVIAEARKAAGGADVLLKIHWKIVAGGEHAGTSPGLQGEGPLDLAKIAAEYYKIPLNAASTILHDLAEAAAEKDELRVREILETLATTVSQDTWKRILYMR | not soluble |
| GSLKCILLNQAEELPIEFLPKDGVYGKGKLFDSRNMEIENFTESDILQDARRAAEAHRRARYRVQSIVRPGITLLEIVRSIEDSTRTLLKGERNNGIGFPAGMSMNSCAAHYTVNPGEQDIVLKEDDVLKIDFGTHSDGRIMDSAFTVAFKENLEPLLVAAREGTETGIKSLGVDVRVCDIGRDINEVISSYEVEIGGRMWPIRPISDLHGHSISQFRIHGGISIPAVNNRDTTRIKGDSFYAVETFATTGKGSIDDRPPCSHFVLNTYKSRKLFNKDLIKVYEFVKDSLGTLPFSPRHLDYYGLVKGGSLKSVNLLTMMGLLTPYPPLNDIDGCKVAQFEHTVYLSEHGKEVLTRGDDY | soluble |
| SALSSCASLLGSPLSNDFMVLSLSDLLTPWEVIRKRAEAAAILDLVTVIYNPRGSRFPNNLEKVMEYFLKYRSGDTPVGIVRNAYRPDQSAKIVQLKDFSCSEIDMLTTVIIGNSETY | not soluble |
| MSLNPANLPFDSDTMLQGLRAWVECESPTWDTAAVERMLDLAAREMAIMGATIERIAGRQGFAGCVRARFPHPKQGEPGILIAGHLDTVHPVGTLSKLPFRREGNKAFGPGIFDMKGGNYLTLEAIKQLARASFTTPLPITVLFTPDEEVGTPSTRDIIEAEAARNKYVLVPEPGRPDNGVVTGRYAIARFNLEAIGKPSHAGATLSSGRSAIREMAKQILAIDAMTTEDCTFSVGIVHGGQWVNCVATTCTGEALSMAKRQADLDRGVDRMLALSGSSSDVTFKVTRGVTRPVWEPDSGTMALYEKARAVASQLGVSLPHGSAGGGSDGNFTGAMGIPTLDGLGVRGADAHTLNEHIEVDSLAERGRLMAGLLATLEEGHHHHHH | not soluble |
